Measured values from the supplement of paper PMC10567573.

B1: NET1 (parent)
chain: RVRPLARVTSLANLISPVRNGAVR

Variants of: B1
Experiment: protein stability index of a GFP-peptide fusion (GPS, HEK-293T) (PSI 1-6); higher = more stable
Conditions: c terminus: a fixed tail appended
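Note: lentivirally expressed fusions sorted by FACS into six bins by GFP to DsRed ratio, PSI derived from sequencing read proportions per bin multiplied by bin number.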

Variant	protein stability index
RVRPLARVTSLANLISPVRNGAVH	2.38
RVRPLARVTSLANLISPVRNGAVK	3.47
RVRPLARVTSLANLISPVRNGAVV	2.63
RVRPLARVTSLANLISPVRNGAVQ	3.37
RVRPLARVTSLANLISPVRNGAVF	2.44
RVRPLARVTSLANLISPVRNGAVD	3.37
RVRPLARVTSLANLISPVRNGAVN	2.91
RVRPLARVTSLANLISPVRNGAVM	2.19
RVRPLARVTSLANLISPVRNGAVL	2.2
RVRPLARVTSLANLISPVRNGAVP	2.93
RVRPLARVTSLANLISPVRNGAVT	2.39
RVRPLARVTSLANLISPVRNGAVW	2.44
RVRPLARVTSLANLISPVRNGAVI	2.54
RVRPLARVTSLANLISPVRNGAVC	3.21
RVRPLARVTSLANLISPVRNGAVY	1.88
RVRPLARVTSLANLISPVRNGAVG	2.93
RVRPLARVTSLANLISPVRNGAVS	2.74
RVRPLARVTSLANLISPVRNGAVE	3.8
RVRPLARVTSLANLISPVRNVAVR	2.69
RVRPLARVTSLANLISPVRNQAVR	3.12
RVRPLARVTSLANLISPVRNWAVR	2.31
RVRPLARVTSLANLISPVRNHAVR	2.85
RVRPLARVTSLANLISPVRNTAVR	3.35
RVRPLARVTSLANLISPVRNAAVR	3.62

Variant	protein stability index
RVRPLARVTSLANLISPVRNLAVR	2.68
RVRPLARVTSLANLISPVRNYAVR	2.82
RVRPLARVTSLANLISPVRNCAVR	2.75
RVRPLARVTSLANLISPVRNDAVR	2.55
RVRPLARVTSLANLISPVRNFAVR	2.42
RVRPLARVTSLANLISPVRNEAVR	3.08
RVRPLARVTSLANLISPVRNRAVR	2.42
RVRPLARVTSLANLISPVRNSAVR	3.56
RVRPLARVTSLANLISPVRNMAVR	2.69
RVRPLARVTSLANLISPVRNIAVR	2.87
RVRPLARVTSLANLISPVRNKAVR	2.71
RVRPLARVTSLANLISPVRNNAVR	2.88
RVRPLARVTSLANLISPVRNPAVR	3.52
RVRPLARVTSLANLISPVRNGEVR	3.52
RVRPLARVTSLANLISPVRNGRVR	3.36
RVRPLARVTSLANLISPVRNGYVR	2.54
RVRPLARVTSLANLISPVRNGLVR	2.62
RVRPLARVTSLANLISPVRNGIVR	2.76
RVRPLARVTSLANLISPVRNGKVR	3.36
RVRPLARVTSLANLISPVRNGVVR	2.75
RVRPLARVTSLANLISPVRNGCVR	2.92
RVRPLARVTSLANLISPVRNGDVR	3.35
RVRPLARVTSLANLISPVRNGPVR	3.49
RVRPLARVTSLANLISPVRNGFVR	2.4

Variant	protein stability index
RVRPLARVTSLANLISPVRNGMVR	2.25
RVRPLARVTSLANLISPVRNGWVR	1.86
RVRPLARVTSLANLISPVRNGTVR	3.46
RVRPLARVTSLANLISPVRNGQVR	3.69
RVRPLARVTSLANLISPVRNGHVR	3.03
RVRPLARVTSLANLISPVRNGNVR	3.02
RVRPLARVTSLANLISPVRNGGVR	3.18
RVRPLARVTSLANLISPVRNGSVR	3.37
RVRPLARVTSLANLISPVRNGARR	3.89
RVRPLARVTSLANLISPVRNGAQR	3.73
RVRPLARVTSLANLISPVRNGAFR	2.26
RVRPLARVTSLANLISPVRNGAKR	3.99
RVRPLARVTSLANLISPVRNGAAR	3.08
RVRPLARVTSLANLISPVRNGASR	3.4
RVRPLARVTSLANLISPVRNGAER	2.79
RVRPLARVTSLANLISPVRNGATR	3.13
RVRPLARVTSLANLISPVRNGAIR	2.7
RVRPLARVTSLANLISPVRNGADR	3.3
RVRPLARVTSLANLISPVRNGANR	3.68
RVRPLARVTSLANLISPVRNGAYR	2.9
RVRPLARVTSLANLISPVRNGAHR	3.43
RVRPLARVTSLANLISPVRNGAMR	3.22
RVRPLARVTSLANLISPVRNGAPR	3.86
RVRPLARVTSLANLISPVRNGAWR	2.4

Variant	protein stability index
RVRPLARVTSLANLISPVRNGAGR	3.79
RVRPLARVTSLANLISPVRNGALR	2.66
RVRPLARVTSLANLISPVRNGACR	2.72
RVRPLARVTSLANLISPVRPGAVR	2.94
RVRPLARVTSLANLISPVRGGAVR	2.96
RVRPLARVTSLANLISPVRCGAVR	2.72
RVRPLARVTSLANLISPVRRGAVR	2.57
RVRPLARVTSLANLISPVRDGAVR	3.2
RVRPLARVTSLANLISPVRFGAVR	2.26
RVRPLARVTSLANLISPVRAGAVR	2.91
RVRPLARVTSLANLISPVRTGAVR	2.79
RVRPLARVTSLANLISPVREGAVR	3.33
RVRPLARVTSLANLISPVRMGAVR	2.54
RVRPLARVTSLANLISPVRSGAVR	2.74
RVRPLARVTSLANLISPVRYGAVR	2.52
RVRPLARVTSLANLISPVRHGAVR	3.3
RVRPLARVTSLANLISPVRQGAVR	3.75
RVRPLARVTSLANLISPVRIGAVR	2.66
RVRPLARVTSLANLISPVRLGAVR	3.29
RVRPLARVTSLANLISPVRKGAVR	2.49
RVRPLARVTSLANLISPVRVGAVR	2.64
RVRPLARVTSLANLISPVRWGAVR	2.33
